Laboratory results reported in patent publication US20140087995A1 (published 2014).
Numbered stars: 1 amine (or outer) side, 2 acyl side, 3 side chain; on linkers, the order of the positions; unused ones are H or OH. Bridge positions count the residues as written; N and C are the ends. Side chains are listed from the residue outwards. Ends that are not written are not given here. * marks the point of attachment. C20 diacid = O=C(O)CCCCCCCCCCCCCCCCCCC(=O)*; γGlu = O=C(O)[C@H](CCC(=O)[*:2])N[*:1]

T1: human calcitonin receptor (human, UniProt P30988 25-474)
T1 construct: whole, on cells; Used as membranes prepared from the transfected cells (Assay VII); also called hCTR; hCT
T1 sequence (looked up): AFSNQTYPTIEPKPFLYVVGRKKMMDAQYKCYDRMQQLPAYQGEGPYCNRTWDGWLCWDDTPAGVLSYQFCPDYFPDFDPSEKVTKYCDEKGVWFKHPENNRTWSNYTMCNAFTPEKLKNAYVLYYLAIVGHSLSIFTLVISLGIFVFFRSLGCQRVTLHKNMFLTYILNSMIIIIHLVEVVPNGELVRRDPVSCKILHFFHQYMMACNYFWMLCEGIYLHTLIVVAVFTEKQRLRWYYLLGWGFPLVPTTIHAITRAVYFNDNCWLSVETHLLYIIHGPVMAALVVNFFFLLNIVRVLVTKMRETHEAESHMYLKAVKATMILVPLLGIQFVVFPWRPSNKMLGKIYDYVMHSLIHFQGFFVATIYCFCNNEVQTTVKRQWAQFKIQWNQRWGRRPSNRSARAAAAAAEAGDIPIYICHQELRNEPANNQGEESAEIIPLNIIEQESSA

T2: rat calcitonin receptor (rat, UniProt P32214 25-516)
T2 construct: whole, on cells; Used as membranes prepared from the transfected cells; also called rCTR; rat calcitonin (a) receptor
T2 sequence (looked up): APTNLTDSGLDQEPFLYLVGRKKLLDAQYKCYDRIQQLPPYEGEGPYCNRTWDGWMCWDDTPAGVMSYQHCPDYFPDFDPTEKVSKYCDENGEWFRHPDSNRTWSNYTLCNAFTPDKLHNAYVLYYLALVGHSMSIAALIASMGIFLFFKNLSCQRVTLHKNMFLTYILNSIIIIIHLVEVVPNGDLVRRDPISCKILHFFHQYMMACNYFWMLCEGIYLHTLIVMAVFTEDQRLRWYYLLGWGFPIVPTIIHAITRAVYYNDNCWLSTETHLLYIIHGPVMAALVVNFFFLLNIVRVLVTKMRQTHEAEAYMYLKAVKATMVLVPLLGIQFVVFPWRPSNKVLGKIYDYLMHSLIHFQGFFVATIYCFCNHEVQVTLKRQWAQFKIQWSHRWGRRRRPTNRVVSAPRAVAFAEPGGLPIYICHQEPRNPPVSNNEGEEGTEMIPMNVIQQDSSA

T3: rat amylin receptor (rat calcitonin receptor + rat RAMP 3) (rat, UniProt P32214 25-516; Q9JJ73 23-147)
T3 construct: whole, on cells; Used as membranes prepared from the transfected cells; also called rAmylin-R; rat amylin 3(a) receptor
T3 sequence (looked up) 1: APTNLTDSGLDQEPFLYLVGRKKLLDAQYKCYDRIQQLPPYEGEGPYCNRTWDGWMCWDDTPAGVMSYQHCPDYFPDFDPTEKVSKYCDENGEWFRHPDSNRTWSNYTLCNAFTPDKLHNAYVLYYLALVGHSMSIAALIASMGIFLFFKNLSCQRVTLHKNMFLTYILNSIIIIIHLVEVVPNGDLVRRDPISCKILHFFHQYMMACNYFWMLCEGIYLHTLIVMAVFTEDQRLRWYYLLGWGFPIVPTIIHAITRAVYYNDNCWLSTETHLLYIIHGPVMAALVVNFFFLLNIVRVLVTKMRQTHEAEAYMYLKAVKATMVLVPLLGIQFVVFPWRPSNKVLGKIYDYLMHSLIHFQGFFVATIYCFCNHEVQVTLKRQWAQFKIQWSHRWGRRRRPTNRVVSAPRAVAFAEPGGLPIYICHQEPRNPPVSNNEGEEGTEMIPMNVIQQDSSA
T3 sequence (looked up) 2: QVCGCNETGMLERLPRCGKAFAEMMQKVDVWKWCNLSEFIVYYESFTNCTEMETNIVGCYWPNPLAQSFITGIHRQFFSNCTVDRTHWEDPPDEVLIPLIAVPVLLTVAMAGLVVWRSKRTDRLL


Tests used:
[1] = biological target: T1, human calcitonin receptor; assay: ratio IC50 human calcitonin receptor / IC50 human amylin receptor (Assays VII and V)
Outline: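 Scintillation proximity competition binding on cell membranes at 35 ng/μL with SPA beads, in 50 mM Hepes pH 7.4, 1 mM CaCl2, 5 mM MgCl₂, 0.1% OA, 0.02% Tween20. Incubated 120 min at 25° C with shaking. IC₅₀ from one-site competition fit.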

rat calcitonin receptor [2] = biological target: T2, rat calcitonin receptor; assay: ratio IC50 rat calcitonin receptor / IC50 rat amylin receptor (Assays VIII and VI)
[3] = biological target: T3, rat amylin receptor (rat calcitonin …); assay: SPA competition with 125I-rat amylin, membranes of BHK cells with rat calcitonin receptor + rat RAMP3 (Assay VI)
rat calcitonin receptor [4] = biological target: T2, rat calcitonin receptor; assay: SPA competition with 125I-calcitonin, membranes of BHK cells with rat calcitonin receptor (Assay VIII)

| Binder | Ratio hCT/hAmylin binding [1] | Ratio rCT/rAmylin binding (rat calcitonin receptor [2]) | IC50 [3] | IC50 (rat calcitonin receptor [4]) |
| --- | --- | --- | --- | --- |
| K([γGlu-γGlu-C20 diacid])CNTATCATQRLADFLRHSSPNFGAPLSSTNVGSDTY-NH2 (disulfide 2-7; N-terminus assumed; SMILES CC(C)C[C@H](NC(=O)[C@H](CCCNC(=N)N)NC(=O)[C@H](CCC(N)=O)NC(=O)[C@@H](NC(=O)[C@H](C)NC(=O)[C@@H]1CSSC[C@H](NC(=O)[C@@H](N)CCCCNC(=O)CC[C@H](NC(=O)CC[C@H](NC(=O)CCCCCCCCCCCCCCCCCCC(=O)O)C(=O)O)C(=O)O)C(=O)N[C@@H](CC(N)=O)C(=O)N[C@@H]([C@@H](C)O)C(=O)N[C@@H](C)C(=O)N[C@@H]([C@@H](C)O)C(=O)N1)[C@@H](C)O)C(=O)N[C@@H](C)C(=O)N[C@@H](CC(=O)O)C(=O)N[C@@H](Cc1ccccc1)C(=O)N[C@@H](CC(C)C)C(=O)N[C@@H](CCCNC(=N)N)C(=O)N[C@@H](Cc1c[nH]cn1)C(=O)N[C@@H](CO)C(=O)N[C@@H](CO)C(=O)N1CCC[C@H]1C(=O)N[C@@H](CC(N)=O)C(=O)N[C@@H](Cc1ccccc1)C(=O)NCC(=O)N[C@@H](C)C(=O)N1CCC[C@H]1C(=O)N[C@@H](CC(C)C)C(=O)N[C@@H](CO)C(=O)N[C@@H](CO)C(=O)N[C@H](C(=O)N[C@@H](CC(N)=O)C(=O)N[C@H](C(=O)NCC(=O)N[C@@H](CO)C(=O)N[C@@H](CC(=O)O)C(=O)N[C@H](C(=O)N[C@@H](Cc1ccc(O)cc1)C(N)=O)[C@@H](C)O)C(C)C)[C@@H](C)O, Derivative of human amylin; also called compound 1) | 27.6 | 104 | 1.3 nM | 135 nM |
| K([γGlu-γGlu-C20 diacid])CNTATCATQRLADFLRHSSNPFGAPLSSTNVGSDTY-NH2 (disulfide 2-7; N-terminus assumed; SMILES CC(C)C[C@H](NC(=O)[C@H](CCCNC(=N)N)NC(=O)[C@H](CCC(N)=O)NC(=O)[C@@H](NC(=O)[C@H](C)NC(=O)[C@@H]1CSSC[C@H](NC(=O)[C@@H](N)CCCCNC(=O)CC[C@H](NC(=O)CC[C@H](NC(=O)CCCCCCCCCCCCCCCCCCC(=O)O)C(=O)O)C(=O)O)C(=O)N[C@@H](CC(N)=O)C(=O)N[C@@H]([C@@H](C)O)C(=O)N[C@@H](C)C(=O)N[C@@H]([C@@H](C)O)C(=O)N1)[C@@H](C)O)C(=O)N[C@@H](C)C(=O)N[C@@H](CC(=O)O)C(=O)N[C@@H](Cc1ccccc1)C(=O)N[C@@H](CC(C)C)C(=O)N[C@@H](CCCNC(=N)N)C(=O)N[C@@H](Cc1c[nH]cn1)C(=O)N[C@@H](CO)C(=O)N[C@@H](CO)C(=O)N[C@@H](CC(N)=O)C(=O)N1CCC[C@H]1C(=O)N[C@@H](Cc1ccccc1)C(=O)NCC(=O)N[C@@H](C)C(=O)N1CCC[C@H]1C(=O)N[C@@H](CC(C)C)C(=O)N[C@@H](CO)C(=O)N[C@@H](CO)C(=O)N[C@H](C(=O)N[C@@H](CC(N)=O)C(=O)N[C@H](C(=O)NCC(=O)N[C@@H](CO)C(=O)N[C@@H](CC(=O)O)C(=O)N[C@H](C(=O)N[C@@H](Cc1ccc(O)cc1)C(N)=O)[C@@H](C)O)C(C)C)[C@@H](C)O, Derivative of human amylin; also called compound 3) | 17.3 | 16.7 | 1 nM | 16.7 nM |
| K([γGlu-C20 diacid])CNTATCATQRLAEFLRHSSPNFGAIPSSTNVGSNTP-NH2 (disulfide 2-7; N-terminus assumed; SMILES CC[C@H](C)[C@H](NC(=O)[C@H](C)NC(=O)CNC(=O)[C@H](Cc1ccccc1)NC(=O)[C@H](CC(N)=O)NC(=O)[C@@H]1CCCN1C(=O)[C@H](CO)NC(=O)[C@H](CO)NC(=O)[C@H](Cc1c[nH]cn1)NC(=O)[C@H](CCCNC(=N)N)NC(=O)[C@H](CC(C)C)NC(=O)[C@H](Cc1ccccc1)NC(=O)[C@H](CCC(=O)O)NC(=O)[C@H](C)NC(=O)[C@H](CC(C)C)NC(=O)[C@H](CCCNC(=N)N)NC(=O)[C@H](CCC(N)=O)NC(=O)[C@@H](NC(=O)[C@H](C)NC(=O)[C@@H]1CSSC[C@H](NC(=O)[C@@H](N)CCCCNC(=O)CC[C@H](NC(=O)CCCCCCCCCCCCCCCCCCC(=O)O)C(=O)O)C(=O)N[C@@H](CC(N)=O)C(=O)N[C@@H]([C@@H](C)O)C(=O)N[C@@H](C)C(=O)N[C@@H]([C@@H](C)O)C(=O)N1)[C@@H](C)O)C(=O)N1CCC[C@H]1C(=O)N[C@@H](CO)C(=O)N[C@@H](CO)C(=O)N[C@H](C(=O)N[C@@H](CC(N)=O)C(=O)N[C@H](C(=O)NCC(=O)N[C@@H](CO)C(=O)N[C@@H](CC(N)=O)C(=O)N[C@H](C(=O)N1CCC[C@H]1C(N)=O)[C@@H](C)O)C(C)C)[C@@H](C)O, Derivative of human amylin; also called compound 12) | 2.5 | 5 | 0.544 nM | 2.71 nM |
| {C20 diacid-γGlu}-KCNTATCATQRLAEFLRHSSPNFGAIPSSTNVGKNTY-NH2 (disulfide 2-7; SMILES CC[C@H](C)[C@H](NC(=O)[C@H](C)NC(=O)CNC(=O)[C@H](Cc1ccccc1)NC(=O)[C@H](CC(N)=O)NC(=O)[C@@H]1CCCN1C(=O)[C@H](CO)NC(=O)[C@H](CO)NC(=O)[C@H](Cc1c[nH]cn1)NC(=O)[C@H](CCCNC(=N)N)NC(=O)[C@H](CC(C)C)NC(=O)[C@H](Cc1ccccc1)NC(=O)[C@H](CCC(=O)O)NC(=O)[C@H](C)NC(=O)[C@H](CC(C)C)NC(=O)[C@H](CCCNC(=N)N)NC(=O)[C@H](CCC(N)=O)NC(=O)[C@@H](NC(=O)[C@H](C)NC(=O)[C@@H]1CSSC[C@H](NC(=O)[C@H](CCCCN)NC(=O)CC[C@H](NC(=O)CCCCCCCCCCCCCCCCCCC(=O)O)C(=O)O)C(=O)N[C@@H](CC(N)=O)C(=O)N[C@@H]([C@@H](C)O)C(=O)N[C@@H](C)C(=O)N[C@@H]([C@@H](C)O)C(=O)N1)[C@@H](C)O)C(=O)N1CCC[C@H]1C(=O)N[C@@H](CO)C(=O)N[C@@H](CO)C(=O)N[C@H](C(=O)N[C@@H](CC(N)=O)C(=O)N[C@H](C(=O)NCC(=O)N[C@@H](CCCCN)C(=O)N[C@@H](CC(N)=O)C(=O)N[C@H](C(=O)N[C@@H](Cc1ccc(O)cc1)C(N)=O)[C@@H](C)O)C(C)C)[C@@H](C)O, Derivative of human amylin; also called compound 36) | 15.7 | 32.4 | 1.86 nM | 60.1 nM |
| K([γGlu-γGlu-C20 diacid])CNTATCATQRLADFLRHSSPNFGAIPSSTNVGSDTY-NH2 (disulfide 2-7; N-terminus assumed; SMILES CC[C@H](C)[C@H](NC(=O)[C@H](C)NC(=O)CNC(=O)[C@H](Cc1ccccc1)NC(=O)[C@H](CC(N)=O)NC(=O)[C@@H]1CCCN1C(=O)[C@H](CO)NC(=O)[C@H](CO)NC(=O)[C@H](Cc1c[nH]cn1)NC(=O)[C@H](CCCNC(=N)N)NC(=O)[C@H](CC(C)C)NC(=O)[C@H](Cc1ccccc1)NC(=O)[C@H](CC(=O)O)NC(=O)[C@H](C)NC(=O)[C@H](CC(C)C)NC(=O)[C@H](CCCNC(=N)N)NC(=O)[C@H](CCC(N)=O)NC(=O)[C@@H](NC(=O)[C@H](C)NC(=O)[C@@H]1CSSC[C@H](NC(=O)[C@@H](N)CCCCNC(=O)CC[C@H](NC(=O)CC[C@H](NC(=O)CCCCCCCCCCCCCCCCCCC(=O)O)C(=O)O)C(=O)O)C(=O)N[C@@H](CC(N)=O)C(=O)N[C@@H]([C@@H](C)O)C(=O)N[C@@H](C)C(=O)N[C@@H]([C@@H](C)O)C(=O)N1)[C@@H](C)O)C(=O)N1CCC[C@H]1C(=O)N[C@@H](CO)C(=O)N[C@@H](CO)C(=O)N[C@H](C(=O)N[C@@H](CC(N)=O)C(=O)N[C@H](C(=O)NCC(=O)N[C@@H](CO)C(=O)N[C@@H](CC(=O)O)C(=O)N[C@H](C(=O)N[C@@H](Cc1ccc(O)cc1)C(N)=O)[C@@H](C)O)C(C)C)[C@@H](C)O, Derivative of human amylin; also called compound 2) | 47.5 | 366 | 0.295 nM | 108 nM |
